Experiment [1] has as its target T1, huIL-27 (Homo sapiens, UniProt Q14213+Q8NEV9).
T1 construct: purchased R&D Systems
T1 sequence (Q8NEV9 29-243): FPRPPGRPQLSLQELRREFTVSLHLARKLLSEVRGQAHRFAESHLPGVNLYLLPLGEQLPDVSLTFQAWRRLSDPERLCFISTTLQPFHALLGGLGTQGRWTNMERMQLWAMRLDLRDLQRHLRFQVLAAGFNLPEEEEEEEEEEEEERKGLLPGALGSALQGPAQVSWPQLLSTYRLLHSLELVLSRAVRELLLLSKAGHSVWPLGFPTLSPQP
T1 sequence (Q14213 21-229): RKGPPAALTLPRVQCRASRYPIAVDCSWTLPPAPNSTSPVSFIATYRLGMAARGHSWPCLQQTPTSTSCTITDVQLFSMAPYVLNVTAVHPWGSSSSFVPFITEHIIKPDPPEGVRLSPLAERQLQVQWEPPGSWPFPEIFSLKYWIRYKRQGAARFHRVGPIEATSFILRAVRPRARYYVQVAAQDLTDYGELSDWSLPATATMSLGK
As to the kind of experiment: Phospho-STAT3 (BIO-PLEX) neutralization of IL-27 by soluble receptors, total human PBMCs. The experiment is classed as cell-based. To be noted: ligand huIL-27 at EC90 (2 nM). An excerpt:
(§1) Whole mouse spleens were harvested from C57 B1/6 mice and washed two times with 1×PBS before being plated out at 2×10^5 cells/well in assay media (RPMI 1640 plus 10% fetal bovine serum) in 96-well, round-bottom tissue culture plates. Total human PBMC (peripheral blood mononuclear cells) were thawed from a frozen vial collected from a leukapherisis donation and washed two times with 1×PBS before being plated out at 10^6 cells/well in assay media in 96-well, round-bottom tissue culture plates. […] Following pre-incubation, treatments were added to the plates containing the cells and incubated together at 37° C. for 15 minutes.
(§2) Following incubation, cells were washed with ice-cold wash buffer (BIO-PLEX Cell Lysis Kit, BIO-RAD Laboratories, Hercules, Calif.) and put on ice to stop the reaction according to manufacturer's instructions. […]
(§3) Capture beads (BIO-PLEX Phospho-Stat3 Assay, BIO-RAD Laboratories) were combined with 50 μL of 1:1 diluted lysates and added to a 96-well filter plate according to manufacture's instructions (BIO-PLEX Phosphoprotein Detection Kit, BIO-RAD Laboratories). […] After the final wash, beads were resuspended in 125 μL/well of bead suspension buffer, shaken for 30 seconds, and read on an array reader (BIO-PLEX, BIO-RAD Laboratories) according to the manufacture's instructions. Data were analyzed using analytical software (BIO-PLEX MANAGER 3.0, BIO-RAD Laboratories). […]

The target of experiment [2] is T2, muIL-27 (Mus musculus, UniProt O35228+Q8K3I6).
T2 construct: purchased R&D Systems
T2 sequence (Q8K3I6 29-234): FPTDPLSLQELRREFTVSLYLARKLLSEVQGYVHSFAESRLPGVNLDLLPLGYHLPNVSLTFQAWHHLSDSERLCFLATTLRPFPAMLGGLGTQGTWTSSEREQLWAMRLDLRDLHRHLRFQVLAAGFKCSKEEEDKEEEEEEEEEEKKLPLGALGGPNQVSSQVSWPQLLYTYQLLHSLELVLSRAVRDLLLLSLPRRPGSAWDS
T2 sequence (O35228 19-228): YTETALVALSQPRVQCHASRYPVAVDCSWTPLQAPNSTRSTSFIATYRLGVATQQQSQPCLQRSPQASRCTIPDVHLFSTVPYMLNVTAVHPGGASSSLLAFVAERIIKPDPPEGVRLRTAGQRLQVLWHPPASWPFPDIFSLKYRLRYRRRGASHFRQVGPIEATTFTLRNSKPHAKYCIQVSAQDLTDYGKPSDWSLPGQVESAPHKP
Described as above. In kind it is cell-based. To be noted: ligand muIL-27 at EC90 (2 nM).
From the text: as §1, §2, §3

pIC50: −log10 of the molar value.

Consider “human IL-27RA-Fc5: Extracellular domain of human IL27RA (amino acids 1 to 512 of SEQ ID NO:3) fused to Fc5, effector minus human gamma1 Fc; SEQ ID NO:16”, for which the negative-log IC50 (pIC50) was 9.02 in experiment [1] and 8.53 in experiment [2].

One may read the pIC50 as the IC50 on a negative log10 scale, so that one unit is a factor of ten.

These data come from US20100093076A1, “SOLUBLE IL-27 RECEPTOR” (priority 2006, published 2010).
